Assay results published in PMC5441561 (Science (New York, N.Y.), 2017).
Like-named read-outs stand apart in the source and are kept apart here.

Experiments:
crystal structure [1] = target: the molecule itself; experiment: crystal structure
crystal structure [2] = target: the molecule itself; experiment: crystal structure; remark: listed apart in the source

| Protein | stoichiometry N (crystal structure [1]) | stoichiometry N (crystal structure [2]) |
| --- | --- | --- |
| KaiC_(S431E) (enzyme, Thermosynechococcus elongatus, UniProt Q79V60 1-518, looked up) MTNLPEHQSSPTEQSSAEVKKIPTMIEGFDDISHGGLPQGRTTLVSGTSGTGKTLFAVQFLYNGITIFNEPGIFVTFEESPQDIIKNALSFGWNLQSLIDQGKLFILDASPDPDGQEVAGDFDLSALIERIQYAIRKYKATRVSIDSVTAVFQQYDAASVVRREIFRLAFRLKQLGVTTIMTTERVDEYGPVARFGVEEFVSDNVVILRNVLEGERRRRTVEILKLRGTTHMKGEYPFTINNGINIFPLGAMRLTQRSSNVRVSSGVKTLDEMCGGGFFKDSIILATGATGTGKTLLVSKFLETGCQQGERALLFAYEESRAQLSRNASSWGIDFEELERRGLLRIICAYPESAGLEDHLQIIKSEIADFKPSRVAIDSLSALARGVSNNAFRQFVIGVTGFAKQEEITGFFTNTTDQFMGSNSITESHIETITDTILLLQYVEIRGEMSRAINVFKMRGSWHDKGIREYVITEKGAEIRDSFRNFEGIISGTPTRISVDEKTELARIAKGMQDLESE | 6 | – |
| KaiA_(cryst) (domain or fragment, Thermosynechococcus elongatus) SNVDPQHRLSQKLKERLGYLGVYYKRDTAFFFRRMSPADKRKLLDELRSIYRTIVLEYFNTDAKVNERIDEFVSKAFFADISVSQVLEIHVELMDTFSKQLKLEGRSEDILLDYRLTLIDVIAHLSEMYRRSIPREV | – | 2 |
